Assay results published in patent US20260193326A1 (published 2026).
Positions count from the first letter of the chain named.

B1: A4-H5 (VHH)
VHH: VQLQASGGGFVQPGGSLRLSCAASGRGFSINTMGWFRQAPGKERELVAVVTRGGTTYYADSVKGRFTISRDNSKNTVYLQMNSLRAEDTAVYYCHVDEVRQSSWTTSNLWGQGTQVTVSS
B2: A4-H2 (VHH)
VHH: B1 VHH with G27S, L46F, T55S, V91T, V96I, L109I
B3: A4-H3 (VHH)
VHH: B1 VHH with R26S, G27I, T32L, V50I, R52P, T55N, V91T
B4: A4-112 (VHH)
VHH: VQLQESGGGLVQTGGSLRLSCIASGSIFSINTVGWYRQAPPKQRELVATVTRAGSTWYAGSVKGRFTISRDNAKNTIYLQMNTLRPEDTAVYYCHVDEVRQSTWTTSNIWGQGTQVTVSS
B5: A4-113 (VHH)
VHH: B4 VHH with I22V, I27R, P41G, A53G, A73T, T83S, V99I, I109L
B6: A4-108 (VHH)
VHH: VQLQESGGGLAQPGGSLRLSCLASGSGFSINTMGWYRQAPPKWRELVATVTRGGSTNYAGSVKGRFTISRDNPKNTVYLQMNSLRPEDTAVYYCHLDEVRQSTWTTSNIWGQGTQVTVSS
B7: A4-109 (VHH)
VHH: VQLQESGGGLVQAGGSLRLSCAASGTIFSLNVMGWYRQAPGKQRELVASVTRGGNTNYADSVKGRFTISRDNAKTTVYLQMNSLRPEDTAVYYCHVDELRDSTWTTSNLWGQGTQVTVSS
B8: A4-110 (VHH)
VHH: VQLQESGGGLVQPGGSLRLSCFASGTNFSINVVGWYRQAPGKQRELVATITRGGSTNYAESVKGRFTISRDNAKNTVYLQMNNLRPEDTAVYYCHLDEVRDSSWTTSNLWGQGTQVTVSS
B9: A4-044 (VHH)
VHH: VQLQESGGGLVQPGGSLRLSCAASGSSFSINTMGWYRQAPGKQRELVATVTRGGVTNYADSVKGRFTISRDNAKNTVYLQMNSLRPEDTAVYYCHVDEVRQSSWTTSNLWGQGTQVTVSS
B10: A4-012 (VHH)
VHH: B9 VHH with L10A, P13A, S27I, T32S, V55N, D60G, Q101E

The binders below were run against T1, AAV9 (adeno-associated virus serotype 9) (assay: SPR, AAV on CM5 chip).
T1 construct: also called adeno-associated virus serotype 9

| Binder | Kd [nM] | koff [s⁻¹] | kon [M⁻¹ s⁻¹] |
| --- | --- | --- | --- |
| B1 | 1900 | 0.0058 | 3050 |
| B2 | 400 | 0.00188 | 4700 |
| B3 | 4.32 | 0.00073 | 169000 |

These binders were tested against T2, AAV8 (adeno-associated virus serotype 8) (assay: SPR, AAV on CM5 chip).
T2 construct: also called adeno-associated virus serotype 8

| Binder | Kd [nM] | koff [s⁻¹] | kon [M⁻¹ s⁻¹] |
| --- | --- | --- | --- |
| B1 | 302 | 0.0013 | 4300 |
| B2 | 1.98 | 0.00028 | 141000 |
| B3 | 9.59 | 0.00128 | 134000 |

The binders below were run against T3, AAV5 (adeno-associated virus serotype 5) (assay: SPR, AAV on CM5 chip).
T3 construct: also called adeno-associated virus serotype 5

| Binder | Kd [nM] | koff [s⁻¹] | kon [M⁻¹ s⁻¹] |
| --- | --- | --- | --- |
| B1 | 823 | 0.00152 | 1850 |
| B2 | 8.51 | 0.00139 | 163000 |
| B3 | 3.05 | 0.00048 | 157000 |

Biological target: T1, AAV9
Test: SPR, AAV on CM5 chip
Remark: another data set of the same source
Procedure: (§1) AAV was amine-coupled to a CM5 sensor chip at a density of 500-800 response units (RU). Nanobodies were injected at seven concentrations (1-100 nM) with a flow rate of 45 μL/min, and chip regeneration was performed using glycine-HCl (pH 1.5). Binding curves at different nanobody concentrations were used to calculate kinetic parameters (Kₐ, Kd, KD) (Table 2 and FIG. 2).

| Binder | Kd [nM] | koff [s⁻¹] | kon [M⁻¹ s⁻¹] |
| --- | --- | --- | --- |
| B4 | 36.6 | 0.0052 | 142000 |
| B5 | 52.5 | 0.00051 | 9720 |
| B6 | 3.54 | 0.00061 | 172000 |
| B7 | 42.4 | 0.00071 | 16800 |
| B8 | 347 | 0.0014 | 4040 |

The binders below were run against T4, AAV8 (assay: SPR, AAV on CM5 chip).
T4 construct: also called adeno-associated virus serotype 8
Procedure: as §1

| Binder | Kd [nM] | koff [s⁻¹] | kon [M⁻¹ s⁻¹] |
| --- | --- | --- | --- |
| B9 | 1.52 | 0.00024 | 158000 |
| B10 | 324 | 0.00417 | 12900 |

Biological target: T2, AAV8
Test: SPR, AAV on CM5 chip
Remark: another data set of the same source
Procedure: as §1

| Binder | Kd [nM] | koff [s⁻¹] | kon [M⁻¹ s⁻¹] |
| --- | --- | --- | --- |
| B4 | 1.11 | 0.00021 | 188000 |
| B5 | 3.25 | 2e-05 | 6150 |
| B6 | 7.94 | 0.00085 | 107000 |
| B7 | 2.27 | 0.00035 | 154000 |
| B8 | 860 | 0.00596 | 6930 |

These binders were tested against T5, AAV9 (assay: SPR, AAV on CM5 chip).
T5 construct: also called adeno-associated virus serotype 9
Procedure: as §1

| Binder | Kd [nM] | koff [s⁻¹] | kon [M⁻¹ s⁻¹] |
| --- | --- | --- | --- |
| B9 | 13.1 | 0.00188 | 143000 |
| B10 | 672 | 0.0694 | 103000 |

These binders were tested against T6, AAV5 (assay: SPR, AAV on CM5 chip).
T6 construct: also called adeno-associated virus serotype 5
Procedure: as §1

| Binder | Kd [nM] | koff [s⁻¹] | kon [M⁻¹ s⁻¹] |
| --- | --- | --- | --- |
| B9 | 7.47 | 0.00137 | 183000 |
| B10 | 18.6 | 0.00173 | 93100 |

Biological target: T3, AAV5
Test: SPR, AAV on CM5 chip
Remark: another data set of the same source
Procedure: as §1

| Binder | Kd [nM] | koff [s⁻¹] | kon [M⁻¹ s⁻¹] |
| --- | --- | --- | --- |
| B4 | 31.6 | 0.00412 | 130000 |
| B5 | 218 | 0.00145 | 6660 |
| B6 | 7.12 | 0.00105 | 148000 |
| B7 | 3.74 | 0.00022 | 58800 |
| B8 | 37.8 | 0.00035 | 9270 |

The binders below were run against T7, AAV2 (UniProt P03135 1-735) (assay: SPR, AAV on CM5 chip;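 further: surface plasmon resonance with AAV amine-coupled to the chip as ligand, nanobodies injected as analyte over a concentration series, rate constants and affinity fitted from binding curves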).
T7 construct: also called adeno-associated virus serotype 2
Procedure: as §1

| Binder | Kd [nM] | koff [s⁻¹] | kon [M⁻¹ s⁻¹] |
| --- | --- | --- | --- |
| B9 | 13.1 | 0.00069 | 52900 |
| B10 | 1180 | 0.0554 | 47000 |
